Assay results: patent US20260184814A1 (HUMABS BIOMED, published 2026)
Substitutions are numbered along the chain they refer to.

B1: FNI9 (antibody, V domains shown)
VH: QVHLVQSGAEVKEPGSSVTVSCKASGGSFNNQAISWVRQAPGQGLEWMGGIFPISGTPTSAQRFQGRVTFTADESTTTVYMDLSSLRSDDTAVYYCARAGSDYFNRDLGWENYYFASWGQGTLVTVSS
VL: EIVMTQSPATLSLSSGERATLSCRASRSVSSNLAWYQQKPGQAPRLLIYDASTRATGFSARFAGSGSGTEFTLTISSLQSEDSAIYYCQQYNNWPPWTFGQGTKVEIK
B2: v4.1 (antibody, V domains shown)
VH: B1 VH with N30S
VL: B1 VL
B3: v4.7 (antibody, V domains shown)
VH: B1 VH with N30S
VL: B1 VL with N93I
B4: FNI9-v8.1 (antibody, V domains shown)
VH: B1 VH with S28T
VL: B1 VL
B5: v6.7 (antibody, V domains shown)
VH: B1 VH with D102E
VL: B1 VL with N93I
B6: v8.7 (antibody, V domains shown)
VH: B1 VH with S28T
VL: B1 VL with N93I
B7: v12.1 (antibody, V domains shown)
VH: B1 VH with P58A, T59N, S60Y, F70I
VL: B1 VL
B8: v12.7 (antibody, V domains shown)
VH: B1 VH with P58A, T59N, S60Y, F70I
VL: B1 VL with N93I
B9: v9.1 (antibody, V domains shown)
VH: B1 VH with P58A, F70I
VL: B1 VL
B10: v7.7 (antibody, V domains shown)
VH: B1 VH with N112Q
VL: B1 VL with N93I
B11: v5.1 (antibody, V domains shown)
VH: B1 VH with N31K
VL: B1 VL
B12: v7.1 (antibody, V domains shown)
VH: B1 VH with N112Q
VL: B1 VL
B13: v5.7 (antibody, V domains shown)
VH: B1 VH with N31K
VL: B1 VL with N93I
B14: v11.7 (antibody, V domains shown)
VH: B1 VH with P58A, S60Y, F70I
VL: B1 VL with N93I
B15: v11.1 (antibody, V domains shown)
VH: B1 VH with P58A, S60Y, F70I
VL: B1 VL
B16: v9.7 (antibody, V domains shown)
VH: B1 VH with P58A, F70I
VL: B1 VL with N93I
B17: v6.1 (antibody, V domains shown)
VH: B1 VH with D102E
VL: B1 VL
B18: FNI3 (antibody, V domains shown)
VH: QVQLVQSGAEVKRPGSSVKVSCKASGATFSNNVIAWVRQAPGQGLEWMGGIHPISATATYAQKFQGRVAIAADELTSTAYMELNGLRSEDSAVYYCARAGSDYFNRDLGWENYYFDSWGQGTLVTVSS
VL: EILMTQSPATLSVSPGERATLSCRASQDVSGNLAWYQQRPGQAPRLLIYGASTRATGVPARFTGAGSGTEFTLTISSLQSEDFALYYCQHYNNWPPWTFGQGTKVEIK

Key:
[1] = biological target: T1, N2 neuraminidase from A/Leningrad/134/17/57 (Influenza A virus A/Leningrad/134/17/57, UniProt Q67214 1-469); assay: flow cytometry, NA transiently expressed on Expi-CHO cells
[2] = biological target: IBV neuraminidase from B/Lee/10/1940 (Ancestral) (Influenza B virus B/Lee/10/1940, UniProt P03474 1-466); assay: as above
[3] = biological target: T1, N2 neuraminidase from …; assay: flow cytometry, NA on cells
N1 [4] = assay: Bio-Layer Interferometry (BLI)
N1 [5] = assay: ELISA on N1 NA
N1 [6] = assay: Bio-Layer Interferometry (BLI); printed as kdis
[7] = biological target: N9 neuraminidase from A/Anhui/1/2013 (Influenza A virus A/Anhui/1/2013 (H7N9)); assay: flow cytometry, NA transiently expressed on Expi-CHO cells
[8] = biological target: N8 A/HARBOR SEAL/NEW …/179629/2011 (Influenza A virus); assay: as above
[9] = biological target: N6 neuraminidase from A/swine/Ontario/01911/1/99 (Influenza A virus …); assay: as above
[10] = biological target: T2, N2 neuraminidase from A/Washington/01/2007 (Influenza A virus A/Washington/01/2007); assay: as above
T2 construct: whole, on cells

Binder	binding result [3]	also measured
B1	–	lowest concentration at which binding was observed (EC50 scale class) [1]: 0.4 µg/mL; lowest concentration at which binding was observed (EC50 scale class) [2]: 0.4 µg/mL
B2	binds	–
B3	binds	–
B4	binds	–
B5	binds	–
B6	binds	–
B7	binds	–
B8	binds	–
B9	binds	–
B10	binds	–
B11	binds	–
B12	binds	–
B13	binds	–
B14	binds	–
B15	binds	–
B16	binds	–
B17	binds	–
B18	–	Kd (N1 [4]): < 1 pM; kon (N1 [4]): 39500 M⁻¹ s⁻¹; EC50 (read off the curve) (N1 [5]): ~0.007 µg/mL; koff (N1 [6]): < 1e-07 s⁻¹; lowest concentration at which binding was observed (EC50 scale class) [7]: 0.4 µg/mL; lowest concentration at which binding was observed (EC50 scale class) [1]: 0.4 µg/mL; lowest concentration at which binding was observed (EC50 scale class) [2]: 0.4 µg/mL; lowest concentration at which binding was observed (EC50 scale class) [8]: 50 µg/mL; lowest concentration at which binding was observed (EC50 scale class) [9]: 0.4 µg/mL; lowest concentration at which binding was observed (EC50 scale class) [10]: 10 µg/mL
